Measurements from the supplement of paper PMC7877785.
± gives the uncertainty stated by the source.

Experiment: self-splicing fitness, log relative to wild type (ln ratio); higher = more splicing; Tetrahymena group I intron in knt gene, E. coli kanamycin selection, DiMSum; sequences stand for … in CUCUCU…GGAGGGAAAAGUUAUCAGGCAUGCACCUGGUAGCUAGUCUUUAAACCAAUAGAUUGCAUCGGUUUAAAAGGCAAGACCGUCAAAUUGCGGGAAAGGGGUCAACAGCCGUUCAGUACCAAGUCUCAGGGGAAACUUUGAGAUGGCCUUGCAAAGGGUAUGGUAAUAAGCUGACGGACAUGGUCCUAACCACGCAGCCAAGUCCUAAGUCAACAGAUCUUCUGUUGAUAUGGAUGCAGUUCACAGACUAAAUGUCGGUCGGGGAAGAUGUAUUCUUCUCAUAAGAUAUAGUCGGACCUCUCCUUAAUGGGAGCUAGCGGAUGAAGUGAUGCAACACUGGAGCCGCUGGGAACUAAUUUGUAUGCGAAAGUAUAUUGAUUAGUUUUGGAGUACUCGUGGUCG
Outline: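 Colonies from six replicate transformations of E. coli BL21(DE3) were pooled and amplicon-sequenced on an Illumina HiSeq 2500. The library placed an intron with all eight P1ex-region nucleotides randomised inside the knt kanamycin-resistance gene on pET-22b(+), and cells grew overnight at 37°C or 30°C on LB agar with or without 25 μg/mL kanamycin (plus 100 μg/mL carbenicillin, 50 μM IPTG, 0.2% rhamnose). Fitness is the DiMSum error-weighted combination of wild-type-normalised replicate fold changes, kanamycin versus none.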

CUCGAGCAAUAUUACGCUAU
self-splicing fitness (ln) (30 °C): -2.92 ± 0.26
self-splicing fitness (ln) (37 °C): -2.8 ± 0.26

CUCGAGCAAUAUUACGGAUC
self-splicing fitness (ln) (37 °C): 0.135 ± 0.27

CUCGAGCAAUAUUACGGAUU
self-splicing fitness (ln) (30 °C): -3.59 ± 0.19
self-splicing fitness (ln) (37 °C): -2.98 ± 0.27

CUCGAGCAAUAUUACGGUGA
self-splicing fitness (ln) (30 °C): -2.66 ± 0.19
self-splicing fitness (ln) (37 °C): -0.793 ± 0.16

CUCGAGCAAUAUUACGUAUC
self-splicing fitness (ln) (30 °C): -4.31 ± 0.3
self-splicing fitness (ln) (37 °C): -2.78 ± 0.29

CUCGAGCAAUAUUACGUCAC
self-splicing fitness (ln) (30 °C): -3.1 ± 0.3
self-splicing fitness (ln) (37 °C): -1.11 ± 0.22

CUCGAGCAAUAUUACGUCGA
self-splicing fitness (ln) (30 °C): -3.29 ± 0.28
self-splicing fitness (ln) (37 °C): -1.67 ± 0.24

CUCUAGCAAUAUUACGAAAU
self-splicing fitness (ln) (30 °C): -3.13 ± 0.21
self-splicing fitness (ln) (37 °C): -3.18 ± 0.27

CUCUAGCAAUAUUACGACAU
self-splicing fitness (ln) (30 °C): -3.866 ± 0.033
self-splicing fitness (ln) (37 °C): -3.6 ± 0.044

CUCUAGCAAUAUUACGCAAC
self-splicing fitness (ln) (30 °C): -3.63 ± 0.2
self-splicing fitness (ln) (37 °C): -3.59 ± 0.28

CUCUAGCAAUAUUACGCACU
self-splicing fitness (ln) (30 °C): -2.77 ± 0.31
self-splicing fitness (ln) (37 °C): -3.07 ± 0.25

CUCUAGCAAUAUUACGCCAG
self-splicing fitness (ln) (30 °C): -2.53 ± 0.32

CUCUAGCAAUAUUACGCCUC
self-splicing fitness (ln) (30 °C): -1.49 ± 0.3

CUCUAGCAAUAUUACGCGAA
self-splicing fitness (ln) (30 °C): -2.68 ± 0.24
self-splicing fitness (ln) (37 °C): -3.56 ± 0.28

CUCUAGCAAUAUUACGGAGA
self-splicing fitness (ln) (30 °C): -1.93 ± 0.47
self-splicing fitness (ln) (37 °C): -0.951 ± 0.27

CUCUAGCAAUAUUACGGAGG
self-splicing fitness (ln) (30 °C): -2.14 ± 0.2
self-splicing fitness (ln) (37 °C): -1.32 ± 0.21

CUCUAGCAAUAUUACGGUAC
self-splicing fitness (ln) (30 °C): -2.88 ± 0.39
self-splicing fitness (ln) (37 °C): -4.12 ± 0.46

CUCUAGCAAUAUUACGGUAG
self-splicing fitness (ln) (30 °C): -4.49 ± 0.33
self-splicing fitness (ln) (37 °C): -1.79 ± 0.23

CUCUAGCAAUAUUACGGUGU
self-splicing fitness (ln) (30 °C): -3 ± 0.19
self-splicing fitness (ln) (37 °C): -2.63 ± 0.3

CUCUAGCAAUAUUACGGUUG
self-splicing fitness (ln) (30 °C): -1.83 ± 0.12
self-splicing fitness (ln) (37 °C): -0.869 ± 0.14

CUCUAGCAAUAUUACGUAAA
self-splicing fitness (ln) (30 °C): -3.71 ± 0.35
self-splicing fitness (ln) (37 °C): -0.971 ± 0.17

CUCUAGCAAUAUUACGUCAC
self-splicing fitness (ln) (30 °C): -2.66 ± 0.19

CUCUAGCAAUAUUACGUGGG
self-splicing fitness (ln) (30 °C): -4.79 ± 0.29
self-splicing fitness (ln) (37 °C): -2.73 ± 0.18

CUCUAGCAAUAUUACGUUAG
self-splicing fitness (ln) (30 °C): -3.81 ± 0.24
self-splicing fitness (ln) (37 °C): -2.13 ± 0.22

CUCUAGCAAUAUUACGUUUU
self-splicing fitness (ln) (30 °C): -4.1 ± 0.22
self-splicing fitness (ln) (37 °C): -3.15 ± 0.16

CUGAAGCAAUAUUACGAAAA
self-splicing fitness (ln) (30 °C): -4.17 ± 0.25
self-splicing fitness (ln) (37 °C): -2.59 ± 0.22

CUGAAGCAAUAUUACGAGGA
self-splicing fitness (ln) (30 °C): -3.46 ± 0.17
self-splicing fitness (ln) (37 °C): -1.95 ± 0.2

CUGAAGCAAUAUUACGCAAA
self-splicing fitness (ln) (30 °C): -4.27 ± 0.42

CUGAAGCAAUAUUACGCAUU
self-splicing fitness (ln) (30 °C): -2.24 ± 0.12
self-splicing fitness (ln) (37 °C): -2.45 ± 0.17

CUGAAGCAAUAUUACGCUAU
self-splicing fitness (ln) (30 °C): -3.68 ± 0.16
self-splicing fitness (ln) (37 °C): -2.04 ± 0.14

CUGAAGCAAUAUUACGCUCA
self-splicing fitness (ln) (30 °C): -3.73 ± 0.37
self-splicing fitness (ln) (37 °C): -0.356 ± 0.22

CUGAAGCAAUAUUACGCUGG
self-splicing fitness (ln) (30 °C): -3.37 ± 0.33
self-splicing fitness (ln) (37 °C): -2.3 ± 0.34

CUGAAGCAAUAUUACGGACU
self-splicing fitness (ln) (30 °C): -2.85 ± 0.22
self-splicing fitness (ln) (37 °C): -0.495 ± 0.17

CUGAAGCAAUAUUACGGAGG
self-splicing fitness (ln) (30 °C): -3.67 ± 0.21
self-splicing fitness (ln) (37 °C): -1.81 ± 0.24

CUGAAGCAAUAUUACGGCAA
self-splicing fitness (ln) (30 °C): -3.04 ± 0.2
self-splicing fitness (ln) (37 °C): -1.21 ± 0.2

CUGAAGCAAUAUUACGGCAG
self-splicing fitness (ln) (30 °C): -0.522 ± 0.11
self-splicing fitness (ln) (37 °C): -0.657 ± 0.14

CUGAAGCAAUAUUACGGCGG
self-splicing fitness (ln) (30 °C): -0.674 ± 0.073
self-splicing fitness (ln) (37 °C): -0.503 ± 0.1

CUGAAGCAAUAUUACGGGAA
self-splicing fitness (ln) (30 °C): -2.05 ± 0.18

CUGAAGCAAUAUUACGGGAG
self-splicing fitness (ln) (30 °C): -0.441 ± 0.067
self-splicing fitness (ln) (37 °C): -0.168 ± 0.078

CUGAAGCAAUAUUACGGUAU
self-splicing fitness (ln) (30 °C): -3.66 ± 0.26
self-splicing fitness (ln) (37 °C): -2.54 ± 0.28
